Laboratory results as given in article PMC4474532 (The EMBO Journal, 2015).

B1: mouse PERK luminal domain (residues 101–399) (domain or fragment, UniProt Q9Z2B5 101-399, looked up)
chain: LVIISTLDGRIAALDAENDGKKQWDLDVGSGSLVSSSLSKPEVFGNKMIIPSLDGDLFQWDRDRESMEAVPFTVESLLESSYKFGDDVVLVGGKSLITYGLSAYSGKLRYICSALGCRRWDSDEMEEEEDILLLQRTQKTVRAVGPRSGSEKWNFSVGHFELRYIPDMETRAGFIESTFKPGGNKEDSKIISDVEEQEATMLDTVIKVSVADWKVMAFSRKGGRLEWEYQFCTPIASAWLVRDGKVIPISLFDDTSYTASEEALGDEEDIVEAARGATENSVYLGMYRGQLYLQSSVRV
B2: human PERK luminal domain (residues 105–403) (domain or fragment, UniProt Q9NZJ5 105-403, looked up)
chain: LVIISTLDGRIAALDPENHGKKQWDLDVGSGSLVSSSLSKPEVFGNKMIIPSLDGALFQWDQDRESMETVPFTVESLLESSYKFGDDVVLVGGKSLTTYGLSAYSGKVRYICSALGCRQWDSDEMEQEEDILLLQRTQKTVRAVGPRSGNEKWNFSVGHFELRYIPDMETRAGFIESTFKPNENTEESKIISDVEEQEAAIMDIVIKVSVADWKVMAFSKKGGHLEWEYQFCTPIASAWLLKDGKVIPISLFDDTSYTSNDDVLEDEEDIVEAARGATENSVYLGMYRGQLYLQSSVRI

How the values were obtained:
[1] = molecular target: the molecule itself; experiment: AUC; sedimentation velocity, 20°C, PERK LD proteins at 30 μM; 50 mM HEPES pH 7.8, 200 mM NaCl, 2 mM TCEP; c(s) by Sedfit; dimer to tetramer equilibrium
[2] = molecular target: the molecule itself; experiment: crystal structure; mouse PERK LD, untagged, 20 mg/ml, hanging drops, 0.1 M MES/imidazole pH 6.5, NPS mix, 12.5% PEG1000, 12.5% PEG3350, 20% MPD, 18°C; 3.3 Å
[3] = molecular target: the molecule itself; experiment: crystal structure; human PERK LD, untagged, 5 mg/ml, hanging drops, 0.1 M Tris pH 8.5, 0.2 M MgCl2, 25% w/v PEG3350, 7% glycerol, 18°C; tungstate MAD; 3.1 Å
[4] = molecular target: the molecule itself; experiment: SAXS; H. sapiens PERK LD 1.25 mg/ml (results: 1–5 mg/ml); 50 mM HEPES pH 7.8, 200 mM NaCl, 2 mM TCEP; profiles computed from the crystal structures fitted with OLIGOMER

Row | Protein | dimer to tetramer ratio [1] | stoichiometry N [1] | stoichiometry N [2] | stoichiometry N [3] | dimer to tetramer ratio [4] | stoichiometry N [4]
1 | B1 | ~1.5 dimer:tetramer | 4 | 2 | – | – | –
2 | B2 | – | – | – | 4 | 1.5 dimer:tetramer | 2
